Experimental data published in article PMC9083366, “Brassinosteroid-Insensitive 1-Associated Receptor Kinase 1 Modulates Abscisic Acid Signaling by Inducing PYR1 Monomerization and Association With ABI1 in Arabidopsis” (Frontiers in Plant Science, 2022).

T1: GST-ABI1 (Arabidopsis thaliana, UniProt P49597 1-434)
T1 construct: ABI1 (ABA-Insensitive 1), clade A protein phosphatase 2C, Arabidopsis thaliana; also called ABA-Insensitive 1; not shown: GST, N-terminal, kept
T1 sequence (looked up): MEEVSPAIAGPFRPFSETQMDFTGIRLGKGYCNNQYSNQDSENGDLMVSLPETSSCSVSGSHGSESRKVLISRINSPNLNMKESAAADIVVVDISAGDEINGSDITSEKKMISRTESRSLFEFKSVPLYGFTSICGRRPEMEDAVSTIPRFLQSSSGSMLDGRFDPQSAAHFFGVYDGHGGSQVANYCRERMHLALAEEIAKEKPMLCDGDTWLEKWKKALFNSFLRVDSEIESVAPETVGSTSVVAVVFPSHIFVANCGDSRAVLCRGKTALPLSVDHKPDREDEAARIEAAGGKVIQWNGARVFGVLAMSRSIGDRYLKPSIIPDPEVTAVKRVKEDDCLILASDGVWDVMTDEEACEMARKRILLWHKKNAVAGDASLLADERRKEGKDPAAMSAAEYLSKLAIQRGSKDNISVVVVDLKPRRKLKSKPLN

B1: HIS-tagged PYR1 recombinant protein (natural protein, Arabidopsis thaliana, UniProt O49686 1-191, looked up)
chain: MPSELTPEERSELKNSIAEFHTYQLDPGSCSSLHAQRIHAPPELVWSIVRRFDKPQTYKHFIKSCSVEQNFEMRVGCTRDVIVISGLPANTSTERLDILDDERRVTGFSIIGGEHRLTNYKSVTTVHRFEKENRIWTVVLESYVVDMPEGNSEDDTRMFADTVVKLNLQKLATVAEAMARNSGDGSGSQVT
notes: PYR1 (PYRABACTIN …1), Arabidopsis thaliana, 191 amino acids; also called HIS-PYR1; PYRABACTIN …1; not shown: His, N-terminal, kept
B2: HIS-PYR1DD (phosphomimetic PYR1) (natural protein, Arabidopsis thaliana, UniProt O49686 1-191, looked up)
chain: MPSELTPEERSELKNSIAEFHTYQLDPGSCSSLHAQRIHAPPELVWSIVRRFDKPQTYKHFIKSCSVEQNFEMRVGCTRDVIVISGLPANTSTERLDILDDERRVTGFSIIGGEHRLTNYKSVTTVHRFEKENRIWDVVLEDYVVDMPEGNSEDDTRMFADTVVKLNLQKLATVAEAMARNSGDGSGSQVT
notes: PYR1, Arabidopsis thaliana, 191 amino acids, T137 and S142 mutagenized to aspartic acid; not shown: His, N-terminal, kept

Biological target: T1, GST-ABI1
Test: pull-down; GST-ABI1 incubated with HIS-PYR1 variants in the absence or presence of 30 uM ABA; western blot with anti-GST and anti-HIS
Conditions: both partners purified

Binder | binding result
B1 | binds
B2 | binds
